Data reported in patent publication US20110306068A1 (HYGLOS INVEST, published 2011).

Target: T1, bacteriophage tail protein T4p12 (bacteriophage T4, UniProt P10930 1-527)
T1 sequence (looked up): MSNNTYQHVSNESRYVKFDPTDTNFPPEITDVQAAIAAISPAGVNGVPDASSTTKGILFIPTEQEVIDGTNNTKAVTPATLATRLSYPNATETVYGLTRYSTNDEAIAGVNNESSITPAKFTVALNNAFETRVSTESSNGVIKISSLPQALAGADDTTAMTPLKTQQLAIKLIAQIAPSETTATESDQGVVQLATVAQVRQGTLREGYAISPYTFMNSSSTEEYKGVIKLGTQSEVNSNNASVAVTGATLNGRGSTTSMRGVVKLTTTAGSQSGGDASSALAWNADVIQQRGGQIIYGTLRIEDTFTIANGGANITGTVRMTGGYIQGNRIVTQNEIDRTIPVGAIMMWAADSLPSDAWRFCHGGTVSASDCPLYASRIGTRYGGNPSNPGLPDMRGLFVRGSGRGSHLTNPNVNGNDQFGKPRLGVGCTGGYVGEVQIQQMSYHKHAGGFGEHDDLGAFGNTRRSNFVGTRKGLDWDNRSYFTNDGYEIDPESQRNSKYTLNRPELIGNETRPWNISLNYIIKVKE
Test: column chromatography; Miro2p12 covalently immobilised on sepharose, control columns without LPS; T4p12 in fractions read by absorption at 280 nm
Description: The amount of the bacteriophage tail protein p12 was plotted against the fractions of the chromatography run. […] The arrow marks the application of p12 onto the column. The fractions F2-F5 were collected after the application. The amount of p12 (stated in mg) was detected by absorption measurement at 280 nm. The fraction volume was 1 ml for fractions F1-F4 and 2 ml for fraction F5. The dissolution of bound T4p12 protein in fraction F5 was affected by addition of 2 mM EDTA to the running buffer (20 mM Hepes, 150 mM NaCl, 0.1 mM CaCl₂, pH 7.5). The bacteriophage tail protein T4p12 was retained at the columns prior loaded with endotoxin, while it elutes without delay through the columns containing no endotoxin.
Bacteriophage tail protein Miro2p12 was immobilized to NHS-Sepharose (Amersham Pharmacia) (3.4 mg protein per 1 ml sepharose) and out of this 4 column were cast with a volume of 0.5 ml each. The columns were washed with each 3 ml sodium phosphate buffer (20 mM sodium phosphate, pH 12.0) and with each 3 ml regeneration buffer (20 mM Hepes, 150 mM NaCl, 2 mM EDTA, pH 7.5). […] The flow-through was collected three times in fractions of 1 ml and once of 2 ml and the concentrations of the bacteriophage tail protein T4p12 was determined via absorption measurement at 280 nm in these fractions (FIG. 5). […]

B1: bacteriophage tail protein Miro2p12 (other)
chain: MAQNNYNHYSDLAKYTIFDPTNTQWPVAIKDVQSALELIGSWARTDTGLPVASPTVAGVIRTATQAEVDAGTIGNAAVTPATLKSTVTRPEATTAVLGLTRYATNTEAAALTAGNRTITAAALGHVFKTVKAQENVDGTVRLTTAAQAQAGTDETTAVTPKRVVEMIGKFSVSPPSYTSATESNLGLVRVATQAQVAAGAVHDGYAVTPKTFMASKASDSVFGIVKFAKDSDVASATSNNLAVTPKSLQALKSTKDKYGLTRLSGSPTTDASLAAAATDAVFKTRRINGKTLDNDITITNNDINCYTRQESDGRYMPAGTRVGNVTWVEGQSWISRGATFTCNAPWEASSRLALNVNVKFERNNDGYDNRIFRFVVIVNGSQWGGELTLNIENTKGGRNGHSWRFEAYASSNFFFNNIPPNATVQIRPTEDSRIIFYDCMLTFCTNRP
notes: The only purification described is of the N-Strep form
  binding result: no binding (tested: 0.5 ml of 0.844 mg/ml T4p12 applied)
